One molecule from publication PMC11937480 (Communications Biology, 2025) can be followed below.

The target of the experiment is T1, HA-ZNF449 (UniProt Q6P9G9 1-518).
T1 sequence (looked up): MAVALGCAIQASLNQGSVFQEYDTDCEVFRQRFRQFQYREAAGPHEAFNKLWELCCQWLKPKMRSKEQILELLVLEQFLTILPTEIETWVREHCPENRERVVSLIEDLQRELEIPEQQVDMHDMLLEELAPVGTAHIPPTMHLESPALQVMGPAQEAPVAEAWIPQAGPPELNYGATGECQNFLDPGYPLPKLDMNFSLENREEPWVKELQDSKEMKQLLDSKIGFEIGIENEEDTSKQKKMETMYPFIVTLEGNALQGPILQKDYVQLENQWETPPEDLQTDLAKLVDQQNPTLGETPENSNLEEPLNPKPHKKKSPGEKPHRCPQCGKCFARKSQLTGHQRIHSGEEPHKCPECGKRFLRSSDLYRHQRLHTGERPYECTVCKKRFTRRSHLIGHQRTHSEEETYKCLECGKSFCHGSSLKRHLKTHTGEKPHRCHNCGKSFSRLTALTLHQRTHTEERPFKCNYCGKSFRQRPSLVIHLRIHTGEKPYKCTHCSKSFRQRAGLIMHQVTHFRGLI
Briefly: pull-down.

B1: GST-fused PTOV1 (125–283 aa) truncation (domain or fragment, UniProt Q86YD1 125-283, looked up)
chain: VNQGENLETDQWPQKLIMQLIPQQLLTTLGPLFRNSQLAQFHFTNRDCDSLKGLCRIMGNGFAGCMLFPHISPCEVRVLMLLYSSKKKIFMGLIPYDQSGFVSAIRQVITTRKQAVGPGGVNSGPVQIVNNKFLAWSGVMEWQEPRPEPNSRSKRWLPS
With B1, the binding result is “binds”.
